# From patent US20230357429A1 (JANUX THERAPEUTICS, published 2023)
# Read-outs that look alike come from different tables or passages of the source. Where no end group is shown, it is not given here.
# T1: Peptide-25 (cysteine pairing not given here; also: biotinylated (site not given here))
# T1 peptide: VDFCKIYSWPVCHQ
# T2: Peptide-33 (cysteine pairing not given here; also: biotinylated, site not given here)
# T2 peptide: PDFCYMYNWPVCVT
# T3: Peptide-36 (cysteine pairing not given here; also: biotinylated, site not given here)
# T3 peptide: VDFCYQYGWPICSR
# T4: Peptide-40 (cysteine pairing not given here; also: biotinylated, site not given here)
# T4 peptide: VDFCYLYSWPICTK
# T5: Peptide-41 (cysteine pairing not given here; also: biotinylated, site not given here)
# T5 peptide: VDFCGLYHWPICYQVY
# T6: Peptide-35 (cysteine pairing not given here; also: biotinylated, site not given here)
# T6 peptide: EDFCYWYQWPICSD
# T7: Peptide-38 (cysteine pairing not given here; also: biotinylated, site not given here)
# T7 peptide: VDFCSIYHWPVCYV
# T8: Peptide-39 (cysteine pairing not given here; also: biotinylated, site not given here)
# T8 peptide: VDFCGLYHWPICYQVD
# T9: Peptide-32 (cysteine pairing not given here; also: biotinylated, site not given here)
# T9 peptide: PDFCYMYGWPICDS
# T10: Peptide-62 (cysteine pairing not given here; also: biotinylated, site not given here)
# T10 peptide: IDFCAVYKWPVCQV
# T11: Peptide-42 (cysteine pairing not given here; also: biotinylated, site not given here)
# T11 peptide: IDFCAMYHWPICDT
# T12: Peptide-63 (cysteine pairing not given here; also: biotinylated, site not given here)
# T12 peptide: IDFCLIYNWPVCDT
# T13: Peptide-37 (cysteine pairing not given here; also: biotinylated, site not given here)
# T13 peptide: VDFCYLYNWPVCSK
# T14: Peptide-3 (cysteine pairing not given here; also: biotinylated, site not given here)
# T14 peptide: IDFCMLYNWPICAG
# T15: Peptide-8 (cysteine pairing not given here; also: biotinylated, site not given here)
# T15 peptide: VDFCGLYHWPICYQ
# T16: Peptide-43 (cysteine pairing not given here; also: biotinylated, site not given here)
# T16 peptide: VDFCALYHWPICYQ
# T17: Peptide-64 (cysteine pairing not given here; also: biotinylated, site not given here)
# T17 peptide: PDFCAVYRWPICYQ
# T18: Peptide-14 (cysteine pairing not given here; also: biotinylated (site not given here))
# T18 peptide: LDFCKIYDWPICHL
# T19: Peptide-20 (cysteine pairing not given here; also: biotinylated (site not given here))
# T19 peptide: VDFCSFYRWPICET
# T20: Peptide-13 (cysteine pairing not given here; also: biotinylated (site not given here))
# T20 peptide: VDFCELYRWPICNS
# T21: Peptide-2 (cysteine pairing not given here; also: biotinylated (site not given here))
# T21 peptide: IDFCAVYKWPVCQV
# T22: Peptide-6 (cysteine pairing not given here; also: biotinylated, site not given here)
# T22 peptide: IDFCLIYNWPVCDT
# T23: Peptide-10 (cysteine pairing not given here; also: biotinylated (site not given here))
# T23 peptide: IDFCAIYQWPVCRS
# T24: Peptide-1 (cysteine pairing not given here; also: biotinylated (site not given here))
# T24 peptide: IDFCAMYQWPICDT
# T25: Peptide-18 (cysteine pairing not given here; also: biotinylated (site not given here))
# T25 peptide: MDFCQIYDWPICRL
# T26: Peptide-4 (cysteine pairing not given here; also: biotinylated, site not given here)
# T26 peptide: VDFCKIYAWPICGS
# T27: Peptide-5 (cysteine pairing not given here; also: biotinylated, site not given here)
# T27 peptide: VDFCKLYNWPVCQT
# T28: Peptide-7 (cysteine pairing not given here; also: biotinylated, site not given here)
# T28 peptide: EDFCKLYNWPICYQ
# T29: Peptide-12 (cysteine pairing not given here; also: biotinylated (site not given here))
# T29 peptide: PDFCAVYRWPICYQ
# T30: Peptide-17 (cysteine pairing not given here; also: biotinylated (site not given here))
# T30 peptide: IDFCLLYDWPICGR
# T31: Human TROP2 ECD (31-274 AA), biotinylated (human, UniProt P09758 31-274, biotinylated (site not stated))
# T31 construct: captured on neutravidin plates; also called TROP2-biotin; Trop2-biotin
# T31 sequence: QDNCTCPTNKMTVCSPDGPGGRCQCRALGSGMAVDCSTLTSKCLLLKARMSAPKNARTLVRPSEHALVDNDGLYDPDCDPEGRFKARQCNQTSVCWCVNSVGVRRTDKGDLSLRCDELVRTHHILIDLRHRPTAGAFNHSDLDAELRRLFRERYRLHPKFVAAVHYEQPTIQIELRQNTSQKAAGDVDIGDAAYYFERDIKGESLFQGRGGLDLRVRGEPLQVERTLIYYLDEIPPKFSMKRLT
# Tests used:
# [1] = target: T32, TCE-1 (anti-CD3 scFv wt; anti-TROP2 Fab wt); test: competition ELISA: peptide titrated and pre-incubated with a constant concentration of TCE-1, binding of TCE-1 to plate-bound biotinylated CD3 detected
# T32 construct: anti-CD3 scFv fused to the N-terminus of the anti-TROP2 Fab heavy chain; also called TCE-1 (wt)
# [2] = target: T33, TCE-14 (anti-CD3 scFv F104A; anti-TROP2 wt); test: competition ELISA, TCE on captured CD3
# T33 construct: scFv on the Fab heavy chain; also called TCE-14 (F104A)
# [3] = target: T34, TCE-11 (anti-CD3 scFv H101A; anti-TROP2 wt); test: competition ELISA, TCE on captured CD3
# T34 construct: scFv on the Fab heavy chain; also called TCE-11 (H101A)
# [4] = target: T35, TCE-20 (anti-CD3 scFv S110A; anti-TROP2 wt); test: competition ELISA, TCE on captured CD3
# T35 construct: scFv on the Fab heavy chain; also called TCE-20 (S110A)
# [5] = target: T36, TCE-26 (anti-CD3 scFv W233A; anti-TROP2 HC wt); test: competition ELISA, TCE on captured CD3
# T36 construct: scFv on the Fab heavy chain; also called TCE-26 (W233A)
# [6] = target: T37, TCE-31 (anti-CD3 scFv W238A; anti-TROP2 wt); test: competition ELISA, TCE on captured CD3
# T37 construct: scFv on the Fab heavy chain; also called TCE-31 (W238A)
# [7] = target: T38, TCE-33 (anti-CD3 scFv F240A; anti-TROP2 wt); test: competition ELISA, TCE on captured CD3
# T38 construct: scFv on the Fab heavy chain; also called TCE-33 (F240A)
# [8] = target: T39, TCE-10 (anti-CD3 scFv R100A; anti-TROP2 wt); test: competition ELISA, TCE on captured CD3
# T39 construct: scFv on the Fab heavy chain; also called TCE-10 (R100A)
# [9] = target: T40, TCE-13 (anti-CD3 scFv N103A; anti-TROP2 wt); test: competition ELISA, TCE on captured CD3
# T40 construct: scFv on the Fab heavy chain; also called TCE-13 (N103A)
# [10] = target: T41, TCE-22 (anti-CD3 scFv W112A; anti-TROP2 wt); test: competition ELISA, TCE on captured CD3
# T41 construct: scFv on the Fab heavy chain; also called TCE-22 (W112A)
# [11] = target: T1, Peptide-25; test: ELISA, Fab on captured biotin-peptide
# [12] = target: T2, Peptide-33; test: ELISA, Fab on captured biotin-peptide
# [13] = target: T3, Peptide-36; test: ELISA, Fab on captured biotin-peptide
# [14] = target: T4, Peptide-40; test: ELISA, Fab on captured biotin-peptide
# [15] = target: T5, Peptide-41; test: ELISA, Fab on captured biotin-peptide
# [16] = target: T6, Peptide-35; test: ELISA, Fab on captured biotin-peptide
# [17] = target: T7, Peptide-38; test: ELISA, Fab on captured biotin-peptide
# [18] = target: T8, Peptide-39; test: ELISA, Fab on captured biotin-peptide
# [19] = target: T9, Peptide-32; test: ELISA, Fab on captured biotin-peptide
# [20] = target: T10, Peptide-62; test: ELISA, Fab on captured biotin-peptide
# [21] = target: T11, Peptide-42; test: ELISA, Fab on captured biotin-peptide
# [22] = target: T12, Peptide-63; test: ELISA, Fab on captured biotin-peptide
# [23] = target: T13, Peptide-37; test: ELISA, Fab on captured biotin-peptide
# [24] = target: T14, Peptide-3; test: ELISA, Fab on captured biotin-peptide
# [25] = target: T15, Peptide-8; test: ELISA, Fab on captured biotin-peptide
# [26] = target: T16, Peptide-43; test: ELISA, Fab on captured biotin-peptide
# [27] = target: T17, Peptide-64; test: ELISA, Fab on captured biotin-peptide
# [28] = target: T1, Peptide-25; test: ELISA, Fab on captured biotin-peptide
# [29] = target: T18, Peptide-14; test: ELISA, Fab on captured biotin-peptide
# [30] = target: T19, Peptide-20; test: ELISA, Fab on captured biotin-peptide
# [31] = target: T20, Peptide-13; test: ELISA, Fab on captured biotin-peptide
# [32] = target: T21, Peptide-2; test: ELISA, Fab on captured biotin-peptide
# [33] = target: T22, Peptide-6; test: ELISA, Fab on captured biotin-peptide
# [34] = target: T23, Peptide-10; test: ELISA, Fab on captured biotin-peptide
# [35] = target: T24, Peptide-1; test: ELISA, Fab on captured biotin-peptide
# [36] = target: T25, Peptide-18; test: ELISA, Fab on captured biotin-peptide
# [37] = target: T26, Peptide-4; test: ELISA, Fab on captured biotin-peptide
# [38] = target: T27, Peptide-5; test: ELISA, Fab on captured biotin-peptide
# [39] = target: T28, Peptide-7; test: ELISA, Fab on captured biotin-peptide
# [40] = target: T29, Peptide-12; test: ELISA, Fab on captured biotin-peptide
# [41] = target: T14, Peptide-3; test: ELISA, Fab on captured biotin-peptide
# [42] = target: T15, Peptide-8; test: ELISA, Fab on captured biotin-peptide
# [43] = target: T30, Peptide-17; test: ELISA, Fab on captured biotin-peptide
# [44] = target: T31, Human TROP2 ECD (31-274 AA), …; test: ELISA, Fab on captured biotin-TROP2
# [45] = target: T31, Human TROP2 ECD (31-274 AA), …; test: ELISA, Fab on captured biotin-TROP2; remark: listed apart in the source
binder,measurement,setting,value
"QGCGTIADPEPHCW (cysteine pairing not given here; also: biotinylated, site not given here, mask peptide for the CD3 scFv) [Peptide-65]",IC50 (read off the curve),[1],~2000 nM
same,IC50,[2],6460 nM
same,IC50,[3],85000 nM
same,IC50,[4],6540 nM
same,IC50,[5],2640 nM
same,IC50,[6],17700 nM
same,IC50,[7],620 nM
"DWCWYSPDNDGLCD (cysteine pairing not given here; also: biotinylated, site not given here, mask peptide for the CD3 scFv) [Peptide-68]",binding result,[1],binds
same,IC50,[8],88900 nM
same,IC50,[2],1080 nM
same,IC50,[4],400 nM
same,IC50,[5],43000 nM
same,IC50,[6],9470 nM
same,IC50,[7],7350 nM
"SECLVDLQSDPCYW (cysteine pairing not given here; also: biotinylated, site not given here, mask peptide for the CD3 scFv) [Peptide-69]",binding result,[1],binds
same,IC50,[2],11800 nM
same,IC50,[9],50400 nM
same,IC50,[4],4240 nM
same,IC50,[10],56800 nM
same,IC50,[5],2020 nM
same,IC50,[6],6570 nM
same,IC50,[7],810 nM
"VDCGPDGDESILCY (cysteine pairing not given here; also: biotinylated, site not given here, mask peptide for the CD3 scFv) [Peptide-71]",binding result,[1],binds
same,IC50,[8],1350 nM
same,IC50,[3],3720 nM
same,IC50,[9],5080 nM
same,IC50,[4],11800 nM
same,IC50,[10],13800 nM
same,IC50,[5],75400 nM
same,IC50,[6],51000 nM
same,IC50,[7],4830 nM
"TBD-22 (HC D109A) (Fab, V domains shown, Fab; also called HC D109A mutant) VH: QVQLQQSGSELKKPGASVKVSCKASGYTFTNYGMNWVKQAPGQGLKWMGWINTYTGEPTYTDDFKGRFAFSLDTSVSTAYLQISSLKADDTAVYFCARGGFGSSYWYFAVWGQGSLVTVSS VL: DIQLTQSPSSLSASVGDRVSITCKASQDVSIAVAWYQQKPGKAPKLLIYSASYRYTGVPDRFSGSGSGTDFTLTISSLQPEDFAVYYCQQHYITPLTFGAGTKVEIKR",EC50,[11],2.8 nM
same,EC50,[12],1.5 nM
same,EC50,[13],2.2 nM
same,EC50,[14],4.6 nM
same,EC50,[15],6 nM
same,EC50,[16],7.7 nM
same,EC50,[17],2 nM
same,EC50,[18],4.6 nM
same,EC50,[19],2.1 nM
same,EC50,[20],0.9 nM
same,EC50,[21],0.8 nM
same,EC50,[22],1.7 nM
same,EC50,[23],1.7 nM
same,EC50,[24],3 nM
same,EC50,[25],0.6 nM
same,EC50,[26],0.9 nM
same,EC50,[27],1.7 nM
same,EC50,[28],1.9 nM
same,EC50,[29],5.3 nM
same,EC50,[30],5.3 nM
same,EC50,[31],3.9 nM
same,EC50,[32],1.1 nM
same,EC50,[33],1.4 nM
same,EC50,[34],1 nM
same,EC50,[35],1 nM
same,EC50,[36],7.8 nM
same,EC50,[37],1.2 nM
same,EC50,[38],0.9 nM
same,EC50,[39],3.6 nM
same,EC50,[40],0.6 nM
same,EC50,[41],1.6 nM
same,EC50,[42],0.6 nM
same,EC50,[43],2.6 nM
same,EC50,[44],1.1 nM
same,EC50,[45],1.1 nM
